Experimental data: US20160272683A1 (Novo Nordisk, published 2016)
Numbered stars: 1 amine (or outer) side, 2 acyl side, 3 side chain; on linkers, the order of the positions; unused ones are H or OH. * marks the point of attachment. C20 diacid = O=C(O)CCCCCCCCCCCCCCCCCCC(=O)*; C18 diacid = O=C(O)CCCCCCCCCCCCCCCCC(=O)*; γGlu = O=C(O)[C@H](CCC(=O)[*:2])N[*:1]; C14 diacid = O=C(O)CCCCCCCCCCCCC(=O)*

T1: human amylin receptor (human calcitonin receptor + human RAMP3) (human) (UniProt P30988)
T1 sequence (looked up) 1: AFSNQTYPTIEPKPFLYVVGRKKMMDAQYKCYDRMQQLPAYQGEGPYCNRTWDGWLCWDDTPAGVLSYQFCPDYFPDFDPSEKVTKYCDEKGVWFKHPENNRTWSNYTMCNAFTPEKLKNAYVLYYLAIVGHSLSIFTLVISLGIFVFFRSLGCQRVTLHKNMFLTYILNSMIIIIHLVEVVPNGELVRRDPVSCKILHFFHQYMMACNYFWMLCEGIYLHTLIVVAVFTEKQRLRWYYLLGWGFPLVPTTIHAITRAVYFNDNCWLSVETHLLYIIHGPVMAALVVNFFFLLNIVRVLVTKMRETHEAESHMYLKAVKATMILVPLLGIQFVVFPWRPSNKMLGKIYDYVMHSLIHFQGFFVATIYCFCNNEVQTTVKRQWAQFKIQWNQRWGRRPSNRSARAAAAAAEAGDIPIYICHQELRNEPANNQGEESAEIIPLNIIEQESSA
T1 sequence (looked up) 2: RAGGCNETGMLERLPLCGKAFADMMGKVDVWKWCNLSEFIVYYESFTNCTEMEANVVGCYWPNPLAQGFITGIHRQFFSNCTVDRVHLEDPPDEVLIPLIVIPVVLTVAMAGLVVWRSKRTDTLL


Target: T1, human amylin receptor (human calcitonin receptor + human RAMP3) (human)
Assay: whole-cell competition vs 125I-rat amylin (Assay Va)

Row | Binder | IC50
1 | {C14 diacid-γGlu}-ASELSTAALGRLSAELHELATLPRTETGPESP-NH2 [[N-terminal(C14 diacid-gGlu), des1]mimylin] | 1.14 nM
2 | {C20 diacid}-EASELSTAALGRLSAELHELATLPRTETGSGSP-NH2 [[N-terminal(C20 diacid), 30S, 31G]mimylin] | 0.24 nM
3 | {C18 diacid}-EASEVSTAVLGRLSAELHELATLPRTETGPESP-NH2 (SMILES CC(C)C[C@H](NC(=O)[C@H](CCC(=O)O)NC(=O)[C@H](Cc1c[nH]cn1)NC(=O)[C@H](CC(C)C)NC(=O)[C@H](CCC(=O)O)NC(=O)[C@H](C)NC(=O)[C@H](CO)NC(=O)[C@H](CC(C)C)NC(=O)[C@H](CCCNC(=N)N)NC(=O)CNC(=O)[C@H](CC(C)C)NC(=O)[C@@H](NC(=O)[C@H](C)NC(=O)[C@@H](NC(=O)[C@H](CO)NC(=O)[C@@H](NC(=O)[C@H](CCC(=O)O)NC(=O)[C@H](CO)NC(=O)[C@H](C)NC(=O)[C@H](CCC(=O)O)NC(=O)CCCCCCCCCCCCCCCCC(=O)O)C(C)C)[C@@H](C)O)C(C)C)C(=O)N[C@@H](C)C(=O)N[C@H](C(=O)N[C@@H](CC(C)C)C(=O)N1CCC[C@H]1C(=O)N[C@@H](CCCNC(=N)N)C(=O)N[C@H](C(=O)N[C@@H](CCC(=O)O)C(=O)N[C@H](C(=O)NCC(=O)N1CCC[C@H]1C(=O)N[C@@H](CCC(=O)O)C(=O)N[C@@H](CO)C(=O)N1CCC[C@H]1C(N)=O)[C@@H](C)O)[C@@H](C)O)[C@@H](C)O) [[N-terminal(C18 diacid), 5V, 9V]mimylin] | 0.824 nM
4 | {C18 diacid}-EASEHSTAALGRLSAELHELATLPRTETGPESP-NH2 (SMILES CC(C)C[C@H](NC(=O)[C@H](C)NC(=O)[C@H](C)NC(=O)[C@@H](NC(=O)[C@H](CO)NC(=O)[C@H](Cc1c[nH]cn1)NC(=O)[C@H](CCC(=O)O)NC(=O)[C@H](CO)NC(=O)[C@H](C)NC(=O)[C@H](CCC(=O)O)NC(=O)CCCCCCCCCCCCCCCCC(=O)O)[C@@H](C)O)C(=O)NCC(=O)N[C@@H](CCCNC(=N)N)C(=O)N[C@@H](CC(C)C)C(=O)N[C@@H](CO)C(=O)N[C@@H](C)C(=O)N[C@@H](CCC(=O)O)C(=O)N[C@@H](CC(C)C)C(=O)N[C@@H](Cc1c[nH]cn1)C(=O)N[C@@H](CCC(=O)O)C(=O)N[C@@H](CC(C)C)C(=O)N[C@@H](C)C(=O)N[C@H](C(=O)N[C@@H](CC(C)C)C(=O)N1CCC[C@H]1C(=O)N[C@@H](CCCNC(=N)N)C(=O)N[C@H](C(=O)N[C@@H](CCC(=O)O)C(=O)N[C@H](C(=O)NCC(=O)N1CCC[C@H]1C(=O)N[C@@H](CCC(=O)O)C(=O)N[C@@H](CO)C(=O)N1CCC[C@H]1C(N)=O)[C@@H](C)O)[C@@H](C)O)[C@@H](C)O) [[N-terminal(C18 diacid), 5H]mimylin] | 0.832 nM
5 | {C18 diacid}-EASELSTAALGRLSAELHELATLPRTETGSGSP-NH2 [[N-terminal(C18 diacid), 30S, 31G]mimylin] | 0.187 nM

The remaining binders from weak to strong by IC50, led by results:

Row | IC50 | Binder
6 | 1.31 nM | {C18 diacid}-EASELHTAALGRLSAELHELATLPRTETGPESP-NH2 (SMILES CC(C)C[C@H](NC(=O)[C@H](C)NC(=O)[C@H](C)NC(=O)[C@@H](NC(=O)[C@H](Cc1c[nH]cn1)NC(=O)[C@H](CC(C)C)NC(=O)[C@H](CCC(=O)O)NC(=O)[C@H](CO)NC(=O)[C@H](C)NC(=O)[C@H](CCC(=O)O)NC(=O)CCCCCCCCCCCCCCCCC(=O)O)[C@@H](C)O)C(=O)NCC(=O)N[C@@H](CCCNC(=N)N)C(=O)N[C@@H](CC(C)C)C(=O)N[C@@H](CO)C(=O)N[C@@H](C)C(=O)N[C@@H](CCC(=O)O)C(=O)N[C@@H](CC(C)C)C(=O)N[C@@H](Cc1c[nH]cn1)C(=O)N[C@@H](CCC(=O)O)C(=O)N[C@@H](CC(C)C)C(=O)N[C@@H](C)C(=O)N[C@H](C(=O)N[C@@H](CC(C)C)C(=O)N1CCC[C@H]1C(=O)N[C@@H](CCCNC(=N)N)C(=O)N[C@H](C(=O)N[C@@H](CCC(=O)O)C(=O)N[C@H](C(=O)NCC(=O)N1CCC[C@H]1C(=O)N[C@@H](CCC(=O)O)C(=O)N[C@@H](CO)C(=O)N1CCC[C@H]1C(N)=O)[C@@H](C)O)[C@@H](C)O)[C@@H](C)O) [[N-terminal(C18 diacid), 6H]mimylin]
7 | 1.26 nM | {C18 diacid}-EASELSTAALGRLSAELHELATLPRTETGPEHP-NH2 (SMILES CC(C)C[C@H](NC(=O)[C@H](C)NC(=O)[C@H](C)NC(=O)[C@@H](NC(=O)[C@H](CO)NC(=O)[C@H](CC(C)C)NC(=O)[C@H](CCC(=O)O)NC(=O)[C@H](CO)NC(=O)[C@H](C)NC(=O)[C@H](CCC(=O)O)NC(=O)CCCCCCCCCCCCCCCCC(=O)O)[C@@H](C)O)C(=O)NCC(=O)N[C@@H](CCCNC(=N)N)C(=O)N[C@@H](CC(C)C)C(=O)N[C@@H](CO)C(=O)N[C@@H](C)C(=O)N[C@@H](CCC(=O)O)C(=O)N[C@@H](CC(C)C)C(=O)N[C@@H](Cc1c[nH]cn1)C(=O)N[C@@H](CCC(=O)O)C(=O)N[C@@H](CC(C)C)C(=O)N[C@@H](C)C(=O)N[C@H](C(=O)N[C@@H](CC(C)C)C(=O)N1CCC[C@H]1C(=O)N[C@@H](CCCNC(=N)N)C(=O)N[C@H](C(=O)N[C@@H](CCC(=O)O)C(=O)N[C@H](C(=O)NCC(=O)N1CCC[C@H]1C(=O)N[C@@H](CCC(=O)O)C(=O)N[C@@H](Cc1c[nH]cn1)C(=O)N1CCC[C@H]1C(N)=O)[C@@H](C)O)[C@@H](C)O)[C@@H](C)O) [[N-terminal(C18 diacid), 32H]mimylin]
8 | 0.83 nM | {C18 diacid-γGlu}-ASELSTAALGRLSAELHELATLPRTETGSESP-NH2 (SMILES CC(C)C[C@H](NC(=O)[C@H](C)NC(=O)[C@H](C)NC(=O)[C@@H](NC(=O)[C@H](CO)NC(=O)[C@H](CC(C)C)NC(=O)[C@H](CCC(=O)O)NC(=O)[C@H](CO)NC(=O)[C@H](C)NC(=O)CC[C@H](NC(=O)CCCCCCCCCCCCCCCCC(=O)O)C(=O)O)[C@@H](C)O)C(=O)NCC(=O)N[C@@H](CCCNC(=N)N)C(=O)N[C@@H](CC(C)C)C(=O)N[C@@H](CO)C(=O)N[C@@H](C)C(=O)N[C@@H](CCC(=O)O)C(=O)N[C@@H](CC(C)C)C(=O)N[C@@H](Cc1c[nH]cn1)C(=O)N[C@@H](CCC(=O)O)C(=O)N[C@@H](CC(C)C)C(=O)N[C@@H](C)C(=O)N[C@H](C(=O)N[C@@H](CC(C)C)C(=O)N1CCC[C@H]1C(=O)N[C@@H](CCCNC(=N)N)C(=O)N[C@H](C(=O)N[C@@H](CCC(=O)O)C(=O)N[C@H](C(=O)NCC(=O)N[C@@H](CO)C(=O)N[C@@H](CCC(=O)O)C(=O)N[C@@H](CO)C(=O)N1CCC[C@H]1C(N)=O)[C@@H](C)O)[C@@H](C)O)[C@@H](C)O) [[N-terminal(C18 diacid-gGlu), des1, 30S]mimylin]
9 | 0.4 nM | {C18 diacid}-EASEISTAILGRLSAELHELATLPRTETGPESP-NH2 (SMILES CC[C@H](C)[C@H](NC(=O)[C@H](C)NC(=O)[C@@H](NC(=O)[C@H](CO)NC(=O)[C@@H](NC(=O)[C@H](CCC(=O)O)NC(=O)[C@H](CO)NC(=O)[C@H](C)NC(=O)[C@H](CCC(=O)O)NC(=O)CCCCCCCCCCCCCCCCC(=O)O)[C@@H](C)CC)[C@@H](C)O)C(=O)N[C@@H](CC(C)C)C(=O)NCC(=O)N[C@@H](CCCNC(=N)N)C(=O)N[C@@H](CC(C)C)C(=O)N[C@@H](CO)C(=O)N[C@@H](C)C(=O)N[C@@H](CCC(=O)O)C(=O)N[C@@H](CC(C)C)C(=O)N[C@@H](Cc1c[nH]cn1)C(=O)N[C@@H](CCC(=O)O)C(=O)N[C@@H](CC(C)C)C(=O)N[C@@H](C)C(=O)N[C@H](C(=O)N[C@@H](CC(C)C)C(=O)N1CCC[C@H]1C(=O)N[C@@H](CCCNC(=N)N)C(=O)N[C@H](C(=O)N[C@@H](CCC(=O)O)C(=O)N[C@H](C(=O)NCC(=O)N1CCC[C@H]1C(=O)N[C@@H](CCC(=O)O)C(=O)N[C@@H](CO)C(=O)N1CCC[C@H]1C(N)=O)[C@@H](C)O)[C@@H](C)O)[C@@H](C)O) [[N-terminal(C18 diacid), 5I, 9I]mimylin]
10 | 0.275 nM | {C18 diacid}-EASELSTLALGRLSAELHELATLPRTETGPESP-NH2 (SMILES CC(C)C[C@H](NC(=O)[C@H](C)NC(=O)[C@H](CC(C)C)NC(=O)[C@@H](NC(=O)[C@H](CO)NC(=O)[C@H](CC(C)C)NC(=O)[C@H](CCC(=O)O)NC(=O)[C@H](CO)NC(=O)[C@H](C)NC(=O)[C@H](CCC(=O)O)NC(=O)CCCCCCCCCCCCCCCCC(=O)O)[C@@H](C)O)C(=O)NCC(=O)N[C@@H](CCCNC(=N)N)C(=O)N[C@@H](CC(C)C)C(=O)N[C@@H](CO)C(=O)N[C@@H](C)C(=O)N[C@@H](CCC(=O)O)C(=O)N[C@@H](CC(C)C)C(=O)N[C@@H](Cc1c[nH]cn1)C(=O)N[C@@H](CCC(=O)O)C(=O)N[C@@H](CC(C)C)C(=O)N[C@@H](C)C(=O)N[C@H](C(=O)N[C@@H](CC(C)C)C(=O)N1CCC[C@H]1C(=O)N[C@@H](CCCNC(=N)N)C(=O)N[C@H](C(=O)N[C@@H](CCC(=O)O)C(=O)N[C@H](C(=O)NCC(=O)N1CCC[C@H]1C(=O)N[C@@H](CCC(=O)O)C(=O)N[C@@H](CO)C(=O)N1CCC[C@H]1C(N)=O)[C@@H](C)O)[C@@H](C)O)[C@@H](C)O) [[N-terminal(C18 diacid), 8L]mimylin]
